According to patent publication US20260265321A1, “PEPTIDE AND POLYPEPTIDE INHIBITING THE NF-KB SIGNALING PATHWAY” (Centre National de la Recherche Scientifique, priority 2023, published 2026):
Where a chain is given by its changes, count along the chain named. Blank lines part the entries; values can stand above or below the binder they belong to.

Columns and labels:
[1] = target: T1, G1-IKKβ, full-length wt IKKβ fused to the Gluc1 fragment (human, UniProt O14920 1-756); experiment: GPCA (Gaussia princeps protein complementation assay) in HEK293T cells, NLR, mean ± SD of triplicates
T1 construct: Expressed in HEK293T cells for GPCA; full-length; also called Gluc1-IKKβ; not shown: Gluc1 fragment of Gaussia princeps luciferase and flexible 20 amino acid linker, N-terminal
T1 sequence (looked up): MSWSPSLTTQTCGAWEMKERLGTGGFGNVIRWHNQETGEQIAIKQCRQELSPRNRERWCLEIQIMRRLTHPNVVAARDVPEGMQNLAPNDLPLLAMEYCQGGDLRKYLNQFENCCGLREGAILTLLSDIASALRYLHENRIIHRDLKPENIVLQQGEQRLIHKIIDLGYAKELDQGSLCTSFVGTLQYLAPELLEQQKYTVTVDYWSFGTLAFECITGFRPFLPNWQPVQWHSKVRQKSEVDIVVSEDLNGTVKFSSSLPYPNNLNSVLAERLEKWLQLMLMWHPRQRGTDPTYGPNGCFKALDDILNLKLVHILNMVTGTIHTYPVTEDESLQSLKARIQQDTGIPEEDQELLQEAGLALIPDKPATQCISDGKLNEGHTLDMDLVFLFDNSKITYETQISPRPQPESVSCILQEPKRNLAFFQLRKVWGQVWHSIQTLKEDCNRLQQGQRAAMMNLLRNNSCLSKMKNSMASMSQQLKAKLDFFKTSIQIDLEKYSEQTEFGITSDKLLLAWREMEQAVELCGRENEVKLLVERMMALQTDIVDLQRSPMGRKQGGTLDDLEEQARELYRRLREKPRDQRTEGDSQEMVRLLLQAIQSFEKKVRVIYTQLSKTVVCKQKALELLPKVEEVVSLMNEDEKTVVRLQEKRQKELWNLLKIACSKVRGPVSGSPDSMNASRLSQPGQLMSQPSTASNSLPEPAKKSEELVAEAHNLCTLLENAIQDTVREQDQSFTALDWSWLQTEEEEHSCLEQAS
Protocol: (§1) HEK293T cells were transfected using the reverse transfection method. Transfection mixes containing 100 ng of pSPICA-N2 and 100 ng of pSPICA-N1 plasmids expressing test proteins plus JetPEI® (Polyplus transfection) were dispensed in white 96-well plates. HEK293T cells were then seeded on the DNA mixes at a concentration of 4.2×10^4 cells per well. 48 hours after transfection, cells were washed with 50 μl of PBS and lysed with 40 μl of Renilla lysis buffer (Promega, E2820) for 30 minutes with agitation. Gaussia princeps luciferase enzymatic activity was measured using a Berthold Centro LB960 luminometer by injecting 50 μl per well of luciferase substrate reagent (Promega, E2820) and counting luminescence for 10 seconds. Results are expressed as a fold change normalized over the sum of controls, specified herein as normalized luminescence ratio (NLR) 29. For a given protein pair A/B, NLR=(Gluc1-A+Gluc2-B)/[(Gluc1-A+Gluc2)+(Gluc1+Gluc2-B)]. All interactions were measured in three independent experiments, with each experiment being carried out in triplicate. The expression levels of Gluc1- and Gluc2-fused proteins were checked by Western blotting. 24 hours post-transfection, HEK293T cells were collected, lysed by incubation on ice and centrifuged. Aliquots of cleared supernatants were loaded onto an 10% SDS-PAGE gel.

[2] = target: T2, G1-IKKα, full-length wt IKKα fused to the Gluc1 fragment (human, UniProt O15111 1-745); experiment: as above
T2 construct: Expressed in HEK293T cells for GPCA; full-length; also called Gluc1-IKKα; not shown: Gluc1 fragment of Gaussia princeps luciferase and flexible 20 amino acid linker, N-terminal
T2 sequence (looked up): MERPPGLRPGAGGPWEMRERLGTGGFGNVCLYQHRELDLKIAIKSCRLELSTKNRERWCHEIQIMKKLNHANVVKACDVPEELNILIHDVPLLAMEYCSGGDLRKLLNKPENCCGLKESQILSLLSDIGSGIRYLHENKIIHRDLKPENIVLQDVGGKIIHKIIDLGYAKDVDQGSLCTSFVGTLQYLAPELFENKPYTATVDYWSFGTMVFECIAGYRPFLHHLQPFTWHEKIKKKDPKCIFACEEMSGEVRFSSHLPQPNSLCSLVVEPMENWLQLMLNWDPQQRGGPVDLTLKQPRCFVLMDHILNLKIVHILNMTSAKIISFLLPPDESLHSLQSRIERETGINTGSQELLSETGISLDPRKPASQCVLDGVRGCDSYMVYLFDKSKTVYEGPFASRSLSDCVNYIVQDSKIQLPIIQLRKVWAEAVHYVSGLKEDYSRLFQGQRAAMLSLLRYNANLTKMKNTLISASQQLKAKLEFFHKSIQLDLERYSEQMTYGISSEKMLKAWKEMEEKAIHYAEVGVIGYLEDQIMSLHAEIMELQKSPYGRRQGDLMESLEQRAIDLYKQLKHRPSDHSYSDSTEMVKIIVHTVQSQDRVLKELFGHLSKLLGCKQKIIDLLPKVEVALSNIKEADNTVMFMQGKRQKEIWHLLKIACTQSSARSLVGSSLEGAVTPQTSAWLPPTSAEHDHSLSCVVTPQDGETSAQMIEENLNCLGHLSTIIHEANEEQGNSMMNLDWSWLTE
Protocol: as §1

[3] = target: T3, G1-IKKβ L654D/W655D (GPCA construct) (human, UniProt O14920 1-756); experiment: GPCA in HEK293T cells
T3 construct: not shown: Gluc1 fragment of Gaussia princeps luciferase and flexible 20 amino acid linker, N-terminal
T3 sequence (looked up): T1 sequence (looked up) with L654D, W655D
Protocol: as §1

[4] = target: T4, IKKα(10-667) S176E/S180E homodimer, 6×His tag removed (human, UniProt O15111 10-667); experiment: ITC, given as a lower bound
T4 construct: also called purified IKKα
T4 sequence (looked up): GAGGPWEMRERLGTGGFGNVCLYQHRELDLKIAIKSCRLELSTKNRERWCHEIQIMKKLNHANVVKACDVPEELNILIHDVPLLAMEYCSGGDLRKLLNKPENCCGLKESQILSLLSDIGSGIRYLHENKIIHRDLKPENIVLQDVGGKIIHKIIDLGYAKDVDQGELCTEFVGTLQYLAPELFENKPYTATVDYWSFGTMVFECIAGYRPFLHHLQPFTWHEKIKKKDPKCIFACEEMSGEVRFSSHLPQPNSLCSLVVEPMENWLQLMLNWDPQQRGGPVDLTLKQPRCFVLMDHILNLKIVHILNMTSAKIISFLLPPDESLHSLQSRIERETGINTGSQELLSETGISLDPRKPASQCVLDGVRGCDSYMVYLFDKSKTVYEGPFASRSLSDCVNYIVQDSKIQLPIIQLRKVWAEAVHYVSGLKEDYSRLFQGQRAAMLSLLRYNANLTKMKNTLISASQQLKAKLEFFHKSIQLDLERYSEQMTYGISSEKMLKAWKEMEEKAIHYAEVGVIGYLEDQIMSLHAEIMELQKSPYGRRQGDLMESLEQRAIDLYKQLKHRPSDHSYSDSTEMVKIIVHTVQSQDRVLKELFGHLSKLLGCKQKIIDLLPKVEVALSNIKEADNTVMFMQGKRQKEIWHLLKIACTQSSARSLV

[5] = target: T4, IKKα(10-667) S176E/S180E homodimer, …; experiment: ITC, 25 °C, 1:1 model; values called estimates
Protocol: (§2) All experiments were performed in ITC buffer (20 mM HEPES pH 8.0, 150 mM NaCl, 1 mM TCEP) unless otherwise stated. […] Just before the ITC experiments, IKKα or IKKβ samples were concentrated, incubated at room temperature for 30 minutes and centrifuged at 11000 g to remove eventual precipitate. The final concentrations of IKKα and IKKβ in the sample cell varied between 22 and 50 μM depending on the measurement. […] The concentration of peptides in the syringe varied between 220 and 975 μM depending on the measurement.
(§3) All ITC experiments were performed at 25° C. The data were fitted to a 1:1 binding model. […] All data were processed using NITPIC software and global fitting of two datasets was carried out using SEDPHAD.

[6] = target: T4, IKKα(10-667) S176E/S180E homodimer, …; experiment: ITC, 25 °C, 1:1 model; values called estimates; table value; footnote calls it an estimate
Protocol: as §2, §3

binding result [1]: binds | binding result [2]: binds | binding result [3]: no binding
B1: G2-IκBα(73-317) (other, UniProt P25963 73-317, looked up)
chain: DGDSFLHLAIIHEEKALTMEVIRQVKGDLAFLNFQNNLQQTPLHLAVITNQPEIAEALLGAGCDPELRDFRGNTPLHLACEQGCLASVGVLTQSCTTPHLHSILKATNYNGHTCLHLASIHGYLGIVELLVSLGADVNAQEPCNGRTALHLAVDLQNPDLVSLLLKCGADVNRVTYQGYSPYQLTWGRPSTRIQQQLGQLTLENLQMLPESEDEESYDTESEFTEFTEDELPYDDCVFGGQRLTL
notes: range 73-317; Expressed in HEK293T cells for GPCA; also called N-terminal truncated IκBα (73-317) construct; not shown: Gluc2 fragment of Gaussia princeps luciferase and flexible 20 amino acid linker, N-terminal

Kd [4]: > 90 µM | TΔS [5]: -1.2 kcal/mol | ΔG [5]: -5.5 kcal/mol | ΔH [5]: -6.7 kcal/mol | Kd [6]: ~90 µM
Binder: LSSANSLYDDIECFLMELEQPA [synthetic IRF7 pep]
